Data: article PMC4521985

Key:
IFP2.0 = IFP2.0 (UniProt Q9RZA4); experiment: AUC
IFP1.4 = IFP1.4 (UniProt Q9RZA4); experiment: AUC

| Kd (IFP2.0) [µM] | stoichiometry N (IFP2.0) | Kd (IFP1.4) [µM] | stoichiometry N (IFP1.4) | Substance |
| --- | --- | --- | --- | --- |
| 3.7 | 2 | – | – | IFP2.0 (from UniProt Q9RZA4 1-321) |
| – | – | 7.8 | 2 | IFP1.4 (from UniProt Q9RZA4 1-321) |
